This is an account of results in publication PMC11032339.

Assay [1] concerns the target soluble full-length recombinant ADAMTS13 (UniProt Q76LX8). In words: SPR; Biacore T200; ADAMTS13, MDTCS (or fibrinogen) immobilised on CM5 by amine coupling (500-1000 RU); analytes 0-7 µM (or 0-3.5 µM) with 5 mM AEBSF and 10 µM VFKck; 20 mM HEPES-NaOH, 150 mM NaCl, pH 7.4, 0.01% Tween-20, 10 mM CaCl2, 10 µM ZnCl2; 20 µl/min, 25 °C; equilibrium responses fitted to a one-site binding model.

The target in another assay is fibrinogen. The assay is described as above.
Assay [2] deals with soluble full-length recombinant ADAMTS13 (UniProt Q76LX8).

Sequence of UniProt Q76LX8 (Q76LX8 75-1427): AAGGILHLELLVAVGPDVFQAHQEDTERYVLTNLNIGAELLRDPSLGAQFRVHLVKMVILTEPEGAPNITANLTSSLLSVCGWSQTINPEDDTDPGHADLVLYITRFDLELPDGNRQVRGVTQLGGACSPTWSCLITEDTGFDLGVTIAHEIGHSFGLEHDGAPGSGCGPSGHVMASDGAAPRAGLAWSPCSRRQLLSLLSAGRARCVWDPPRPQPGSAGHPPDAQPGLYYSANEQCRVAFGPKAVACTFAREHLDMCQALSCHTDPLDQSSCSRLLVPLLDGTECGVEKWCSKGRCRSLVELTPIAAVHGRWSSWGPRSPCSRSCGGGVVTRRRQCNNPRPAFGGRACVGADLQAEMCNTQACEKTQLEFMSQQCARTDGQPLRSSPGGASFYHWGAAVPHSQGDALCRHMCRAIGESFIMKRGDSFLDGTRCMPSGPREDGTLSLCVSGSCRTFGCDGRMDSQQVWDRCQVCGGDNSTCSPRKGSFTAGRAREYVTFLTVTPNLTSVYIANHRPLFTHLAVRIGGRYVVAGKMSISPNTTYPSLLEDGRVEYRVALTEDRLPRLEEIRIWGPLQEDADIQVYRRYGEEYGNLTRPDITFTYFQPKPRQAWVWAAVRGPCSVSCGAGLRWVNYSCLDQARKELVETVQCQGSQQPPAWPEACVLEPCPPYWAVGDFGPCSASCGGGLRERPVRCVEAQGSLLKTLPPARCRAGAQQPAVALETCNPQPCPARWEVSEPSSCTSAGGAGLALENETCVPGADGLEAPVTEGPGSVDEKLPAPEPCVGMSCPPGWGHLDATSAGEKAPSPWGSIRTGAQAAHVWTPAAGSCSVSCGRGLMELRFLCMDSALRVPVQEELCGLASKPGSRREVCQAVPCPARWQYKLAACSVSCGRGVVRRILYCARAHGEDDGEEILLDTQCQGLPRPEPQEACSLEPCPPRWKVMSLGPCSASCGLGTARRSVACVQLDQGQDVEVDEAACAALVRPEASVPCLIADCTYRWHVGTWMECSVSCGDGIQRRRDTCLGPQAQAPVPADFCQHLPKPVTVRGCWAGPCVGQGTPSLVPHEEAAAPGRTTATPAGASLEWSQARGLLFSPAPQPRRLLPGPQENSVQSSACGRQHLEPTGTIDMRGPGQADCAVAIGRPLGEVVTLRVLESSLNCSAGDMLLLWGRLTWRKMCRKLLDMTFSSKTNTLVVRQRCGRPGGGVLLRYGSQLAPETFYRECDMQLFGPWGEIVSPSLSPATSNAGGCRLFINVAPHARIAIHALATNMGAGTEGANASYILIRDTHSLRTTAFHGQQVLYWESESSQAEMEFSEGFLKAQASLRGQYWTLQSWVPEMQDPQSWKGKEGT

Consider Lys-plasminogen (natural protein), for which, in assay [1], the Kd is 1000 nM.

Consider Glu-plasminogen (natural protein), for which the equilibrium dissociation constant (Kd) in assay [1] stood at 2800 nM.

For the substance Mini-plasminogen (domain or fragment), in assay [1], the Kd was 1500 nM.

Regarding “17-kringle form of apolipoprotein(a) (natural protein)”, the Kd with fibrinogen was determined as 2400 nM; in assay [1], 4000 nM.

Take VFK-plasmin (enzyme): in assay [2], the rate of degradation of 100 nM ADAMTS13 by 10 nM active plasmin (Prolytix, not VFK-blocked) at 37 °C in the presence of 5 mM TXA; Western blot densitometry of the intact ADAMTS13 band is 0.05 nM/min and the rate of degradation of 100 nM ADAMTS13 by 10 nM active plasmin (Prolytix, not VFK-blocked) at 37 °C without TXA; Western blot densitometry of the intact ADAMTS13 band is 1.6 nM/min. Further, the Kd in assay [1] amounted to 1800 nM.
